Laboratory results as given in patent US20230189818A1, “RNA-BASED CONTROL OF BOTRYTIS” (priority 2021, published 2023).

B1: GS2651: dsRNA trigger targeting B. cinerea Bcsec15 (XM_024692064.1); trigger SEQ ID NO 52, RNA 56, reverse complement 60 (nucleic acid, listed as Botrytis cinerea)
sense: UAUGCCUGUCAAUAGCGAAGAAGACUUUGAUAAAAUCAUUCAAGUCAGUUGGUAUGUUCCGGACAGACCGAAAGAAGAAUACACAUUCCCCGGUGUAUUACCAUUCUCCCAGAUGUACCCAAUGUGCUGUAUAGAUAUCAGAAAUUUCCUGAAUCGAUUCUACUUCAUAAUGGAUGAUCAUUUUCAACAGCCAAACAUUAUUGAUGAGACACUUAAGAAGUCGAUAGAUGAGCUUCUGUCUGAGGAUAUUU
antisense: AAAUAUCCUCAGACAGAAGCUCAUCUAUCGACUUCUUAAGUGUCUCAUCAAUAAUGUUUGGCUGUUGAAAAUGAUCAUCCAUUAUGAAGUAGAAUCGAUUCAGGAAAUUUCUGAUAUCUAUACAGCACAUUGGGUACAUCUGGGAGAAUGGUAAUACACCGGGGAAUGUGUAUUCUUCUUUCGGUCUGUCCGGAACAUACCAACUGACUUGAAUGAUUUUAUCAAAGUCUUCUUCGCUAUUGACAGGCAUA
B2: GS245: dsRNA trigger targeting B. cinerea Sec18/Cdc48_2 (XM_024693092.1); trigger SEQ ID NO 13, RNA 25, reverse complement 37 (nucleic acid, listed as Botrytis cinerea)
sense: UCAAGAGAGCCGAAGGUCAUAAACGGUCCUGAAGUGCUUAAUAAAUACGUUGGUCAAUCCGAAGAAAAUAUCCGAAAGCUUUUUGCCGAUGCCGAAAAGGAGUACAAGGAAAAGGGAGACGAGAGUGGUCUUCAUAUCAUCAUUUUCGACGAAUUGGAUGCCGUUUGCAAACAAAGAGGAAGUGGAUCAGGUGGCGGAACUGGUGUUGGCGACAGUGUGGUCAAUCAACUGUUGUCUAAGCUUGAUGGUGUUGACCAGCUCAAUAACAUUCUACUUAUUGGAAUGACCAAUCGUAUGGAUAUGAUUGAUGACGCGCUUCUCAGACCCGGACGUUUAGAAGUUCACAUGGAAAUUUCCCUGCCAGAUGAAGCUGGCAGAGCACAAAUUCUUAAGAUUCAUACGUCCAAGAUGUUAAAGAAUGAUGUCAUGGAUACAGAUGUCGAUGUUGCUGAACUUGCUCAUCUAACCAAGAACUUCUCGGGAGCUGAAAUUG
antisense: CAAUUUCAGCUCCCGAGAAGUUCUUGGUUAGAUGAGCAAGUUCAGCAACAUCGACAUCUGUAUCCAUGACAUCAUUCUUUAACAUCUUGGACGUAUGAAUCUUAAGAAUUUGUGCUCUGCCAGCUUCAUCUGGCAGGGAAAUUUCCAUGUGAACUUCUAAACGUCCGGGUCUGAGAAGCGCGUCAUCAAUCAUAUCCAUACGAUUGGUCAUUCCAAUAAGUAGAAUGUUAUUGAGCUGGUCAACACCAUCAAGCUUAGACAACAGUUGAUUGACCACACUGUCGCCAACACCAGUUCCGCCACCUGAUCCACUUCCUCUUUGUUUGCAAACGGCAUCCAAUUCGUCGAAAAUGAUGAUAUGAAGACCACUCUCGUCUCCCUUUUCCUUGUACUCCUUUUCGGCAUCGGCAAAAAGCUUUCGGAUAUUUUCUUCGGAUUGACCAACGUAUUUAUUAAGCACUUCAGGACCGUUUAUGACCUUCGGCUCUCUUGA

What was measured:
Botrytis cinerea conidia = assay: In vitro liquid-based assay (fungal biomass, 96-well plates, Cytation 5); type: cell-based; conditions: co-incubated with conidia for three days, vs untreated control
Experimental: Fungal culture. The Botrytis cinerea was plated each week the culture onto Malt Extract Agar (MEA) from long-term storage on silica stored at 4° C. Three pellets of silica were added to the center of a MEA agar plate and grown at room temperature without parafilm/tape seal for 10-14 days before use; a culture 12 days old was typically used.
Spore and media preparation. A pure culture of B. cinerea was flooded with a 0.01% Triton x-100 solution and conidia scraped free with a sterile hockey stick. The suspension was transferred to two, 1.5 mL centrifuge tubes and centrifuged at 8000 rpm for two minutes. The supernatant was discarded, pelleted spores washed twice with sterile water, then resuspended in sterile water. Conidia were quantified using a hemacytometer and diluted to a final concentration of 5000 conidia/mL stock. A stock solution of 1.25× minimal media was prepared for the assay setup using the components below. Once the stock solution was made, the pH was adjusted to 6.0 using NaOH or KOH, then filter sterilized through a 0.2 um filter tower and vacuum pump and stored at 4° C. The Kao & Michayluk Vitamins (100×) is a filter sterilized stock solution. The stock contains vitamins and amino acids as described by Kao & Michayluk. After filter sterilization, 20 mg of 4-Aminobenzoic acid in 100 ml of solution was added.
Experimental setup. Screening assays were setup in 96-well plates with conidia co-incubated with treatments (controls and dsRNAs) for three days before determining fungal biomass. Each treatment was replicated eight times within a single plate. In each well consisted of 12.5 μl of conidia suspension, 25 μl of the treatment, 12.5 μl of sterile deionized water, and 200 μl of minimal media. Each plate was covered with a breath right film and placed in the percival growth chamber at 23° C. on the shaking platform set to 120 RPM with 24-hour lighting. Plates were incubated for 72 hours before determining fungal growth.
Reading assay plate. Fungal biomass was determined by reading plates with the Cytation 5 machine. The program was set to compile 8 photo slices per well under brightfield microscopy with a 2.5× lens to measure biomass.
Data analysis. Analysis will automatically run on Cytation5 to determine final biomass.
Results are shown in Table 1B representing the average reduction in biomass vs. control for tested sequences across several runs described above.

[1] = test system: Botrytis cinerea isolate (B05.10); assay: Detached leaf assay (tomato leaflets, lesion size); type: in vivo; conditions: five days post inoculation, vs untreated inoculated control
Experimental: Plant tissue. Tomato plants, variety Brandywine, were grown in the greenhouse for 3 weeks before harvesting the first true leaves for assays. Nodes 2-4 were prioritized for harvest and only lateral leaflets were used for assays. Leaflets of approximately the same size were used each week and were randomized among treatments. Detached leaflets were immediately brought into the lab for treatment and used within 4 hours of harvest. Detached leaflets were kept at 4° C. until they were treated and placed onto a 1% water agar medium for incubation.
Fungal culture. A Botrytis cinerea isolate (B05.10) was preserved on silica for long-term storage and pulled from these tubes stored at 4° C. for growth on a nutritive medium. Three pellets of silica were added to the center of a Malt Extract Agar (MEA) agar plate and grown at room temperature without parafilm/tape seal for ˜14 days, or until abundant conidia formation, before use.
Treatment of leaflets. Leaflets were treated 24 hours before inoculation and applied using an atomizer to get a fine mist of small droplets entirely covering the leaflet. Silwet L-77 was used as a spreader and added for a 0.03% final concentration (Silwet L-77 brand Phyto Technology Laboratories, S7777 Lot #14D7777001 F). The inoculated control was sprayed with the same volume of sterile DI water with Silwet L-77 in the absence of fungicide or experimental material. Leaflets were spray treated by laying them on a paper towel and holding the atomizer ˜6″ away from the leaflet for applications. Treated leaves were placed on a 1% water agar (10 g Bacto Agar, Difco, in 1 L deionized water, sterilized for 30 minutes at 121° C. and poured when reached a temp of 55° C. into 100×20 mm Petri dishes), with lids of the Petri dishes placed back on before putting Petri dishes under plastic bags to maintain humidity before inoculation the following day. Petri dishes of treated leaflets were left on the lab counter until the following day. Each treatment was replicated ten times with each replicate being a single treated leaflet with two inoculation sites, one on each side of the leaf midvein.
Inoculation. The conidial suspension was prepared by pouring a 7% white grape juice solution onto the culture plate, then scraping the plate with a sterile spatula to dislodge the spores and mycelia. The grape juice solution was prepared by mixing Welch's brand organic white grape juice into sterile deionized water. After dislodging the spores and mycelia of the culture, the suspension was poured through two layers of cheesecloth to remove fungal mycelia and catch the conidial suspension in a clean 50 mL conical tube. Approximately 3 uL of TWEEN 20 was added to conidial suspension to prevent sticking to conical tube. The spore concentration was determined using a Neubauer Improved hemocytometer and inoculum was diluted with more 7% grape juice until a spore concentration of 1×10^5 conidia/mL was reached. Inoculum was used to inoculate host tissue within 2 hours of preparation. Each tomato leaflet was inoculated twice, with inoculation sites placed one per side of the leaflet midvein. A 10 μL volume of spore suspension was placed at each inoculation site using a repeater pipette. Special care was taken not to touch the tip to leaflet surface to avoid contamination between treatments.
Incubation. Petri dishes were placed on lunch trays 6 plates high and moved to an incubator. The incubator was humidity controlled and holds at ˜75% relative humidity. The incubator was kept on 12/12 light/dark days and is set to a temperature of 23° C.
Rating. Measurements were taken at five days post inoculation (DPI). Each lesion that developed was measured using electronic calipers in 2 directions perpendicular to each other to help determine lesion diameter.
Data analysis. Data was analyzed using the SAS JMP statistical program (version 13.2.1) with comparisons made to the untreated, inoculated control. […]

[2] = test system: Botrytis cinerea B05.10 isolate; assay: Greenhouse whole plant assay (tomato 'Lanai', disease severity); type: in vivo; conditions: 25 g ai/ha; final rating day (rating #3); three runs; four-week-old 'Lanai' tomato plant
Experimental: Plant Tissue: Tomato seedlings, variety “Lanai”, were seeded then thinned to one plant per pot in an 18 cell tray. […] Plants were grown at a 23° C./17° C. day/night temperature with 10 hours of light each 24-hour period. The RH was ambient and plants were fertilized two times a day every day except for Sunday when they received only water. Plants were grown using Fafard brand medium (70-80% sphagnum peat moss, perlite, vermiculite, dolomite limestone and watering agent) for the entire experiment.
Fungal culture. A Botrytis cinerea B05.10 isolate was maintained, and spores were harvested as previously described for detached leaf assays, except a grape juice additive was not used for inoculum preparation.
Treatment of plants. Whole tomato plants were treated ˜24 hours before inoculation using the spray booth. A 0.07% Silwet L-77 solution was used as a spreader and added for a 0.07% final volume in water (Silwet L-77 brand Phyto Technology Laboratories, S7777 Lot #14D7777001 F). The spray booth deck was set to 20″ above the plant canopy and a twinjet 8002EVS nozzle with 100 mesh filter placed into the spray mechanism. The spray boom was calibrated before treatment application with specs as follows: 50 GPA rate, 1.25 MPH speed, 6′ spray length, single pass, and at 45 psi to get a catch of 133 mL in 10 seconds (+/−6 mL). Each treatment was replicated ten times for each experimental run.
Inoculation. Plants were inoculated using a mist-o-matic applicator, which is pressurized by manual pumping. The inoculum suspension was poured into the mist-o-matic immediately before inoculation in the GH space. The containers were only filled half-way and inoculum was applied evenly to the surface of all foliage with even coverage.
Incubation. Plants were incubated inside of a 40″ tall humidity chamber supported by PVC pipe and covered in 3M translucent plastic. A humidifier was inside the chamber and set to low and continuous humidity (filled with tap water). The temperature was D:24-20° C./N:20-18° C. with 15 hours of light, of which 9 hours was with supplemental lighting. RH was ambient and watering occurred everyday by sub-irrigation with the bench being flooded for 10 minutes before draining.
Rating. Tomato plants were rated three times during the two-week experiment with rating starting four days post-inoculation and occurring every three to four days after the initial rating date. Plants were rated for the number of lesions and disease severity, which is the percentage of the plant that was symptomatic including necrotic lesions, pathogen sporulation, and chlorosis.
Data analysis. […] Percent disease severity (%DS) was determined by the percent area of the tomato foliage with symptoms including lesions, chlorosis, necrosis, and wilting. Disease severity was rated at three dates (Rating #) over the 12-day test period. Treatments were compared to the untreated, inoculated control and a chemical standard. Statistical analysis was done using SAS JMP version 13.2.1 with treatments compared to the untreated, inoculated control and a chemical standard using Tukey-Kramer and student's T tests.

| Molecule | Average % Reduction in Biomass (Botrytis cinerea conidia; 25 ppm dsRNA) [%] | Average % Reduction in Biomass (Botrytis cinerea conidia; 150 ppm dsRNA) [%] | Average % Reduction in Lesion Size ([1]; 30 ppm) [%] | Average % Reduction in Lesion Size ([1]; 50 ppm) [%] | % control [2] [%] |
| --- | --- | --- | --- | --- | --- |
| B1 | 21 | 54 | 9.38 | 12.74 |  |
| B2 | 12 | 7 | 34.78 | 30.52 | 33 |
